How the values were obtained:
[1] = target: Rpk4 monomer (with Avi and hexa-histidine tags) (SARS-CoV-2 (Wuhan-Hu-1))
[2] = target: Rpk9 monomer (with Avi and hexa-histidine tags) (SARS-CoV-2 (Wuhan-Hu-1))

For CR3022 IgG (antibody), the fold decrease of affinity against wild-type RBD [1] was less than 3.5 fold and the fold decrease of affinity against wild-type RBD [2] was less than 3.5 fold.
